Measurements published in US20070092518A1 (published 2007).
Numbering of substitutions follows the chain as printed.

B1: SEQ ID NO 28 (Fab, V domains shown)
VH: EVQLVESGGGLVQPGGSLRLSCAASGSTFSNHWMNWVRQAPGKGLEWIGEIRSKSSYGATSYAESVKGRFIISRDGNGNSLTLEMNSLKTEDTAEYYCAQNYYGSTPDYWGQGTLVTVS
VL: EIVLTQSPDFQSVTPKEKVTITCRASQFVGSSIHWYQQKPDQSPKLLIKYASESMSGVPSRFSGSGSGTDFTFTISSLEAEDAATYYCQQSHSWPFTFGPGTKVDIK
notes: Fab, E. coli lysate
B2: SEQ ID NO 65 (Fab, V domains shown)
VH: B1 VH with A23R, S27F, T28I, S56I, S61H, G76D, G78K, T82Y, P107Y
VL: B1 VL
notes: Fab, E. coli lysate
B3: SEQ ID NO 87 (Fab, V domains shown)
VH: B1 VH with S27F, Y57N, G58S, S61H, G78K, N79T, T82Y, Q100R, P107Y
VL: B1 VL
notes: Fab, E. coli lysate
B4: SEQ ID NO 33 (Fab, V domains shown)
VH: B1 VH with A23R, T28I, W33Y, Y57N, S61H, G76D, G78K, T82Y, Q100R, P107Y
VL: B1 VL
notes: Fab, E. coli lysate
B5: SEQ ID NO 88 (Fab, V domains shown)
VH: B1 VH with S27F, Y57N, G58S, G78K, S80D, Q100R, P107Y
VL: B1 VL
notes: Fab, E. coli lysate
B6: SEQ ID NO 31 (Fab, V domains shown)
VH: B1 VH with V5T, G26Q, S27F, T28I, W33Y, S61H, G78K, N79T, S80D, P107Y
VL: B1 VL
notes: Fab, E. coli lysate
B7: SEQ ID NO 40 (Fab, V domains shown)
VH: B1 VH with W33Y, S56I, Y57N, G58S, N79T, T82Y, Q100R, P107Y
VL: B1 VL
notes: Fab, E. coli lysate
B8: SEQ ID NO 42 (Fab, V domains shown)
VH: B1 VH with S27F, W33Y, G58S, G76D, G78K, Q100R
VL: B1 VL
notes: Fab, E. coli lysate
B9: SEQ ID NO 52 (Fab, V domains shown)
VH: B1 VH with A23R, T28I, G58S, S61H, Q100R, P107Y
VL: B1 VL
notes: Fab, E. coli lysate
B10: SEQ ID NO 45 (Fab, V domains shown)
VH: B1 VH with A23R, S27F, T28I, S56I, G58S, S61H, S80D, Q100R
VL: B1 VL
notes: Fab, E. coli lysate
B11: SEQ ID NO 73 (Fab, V domains shown)
VH: B1 VH with A23R, T28I, W33Y, G76D, G78K, S80D
VL: B1 VL
notes: Fab, E. coli lysate
B12: SEQ ID NO 76 (Fab, V domains shown)
VH: EVQLTESGGGLVQPGGSLRLSCRASGFIFSNHYMNWVRQAPGKGLEWIGEIRSKSINGATHYAESVKGRFIISRDDNGTSLYLEMNSLKTEDTAEYYCARNYYGSTYDYWGQGTLVTVS
VL: B1 VL
notes: Fab, E. coli lysate
B13: SEQ ID NO 74 (Fab, V domains shown)
VH: B1 VH with V5T, G58S, G76D, G78K, Q100R
VL: B1 VL
notes: Fab, E. coli lysate
B14: SEQ ID NO 84 (Fab, V domains shown)
VH: B1 VH with G26Q, G58S, S61H, G78K, S80D, T82Y, Q100R, P107Y
VL: B1 VL
notes: Fab, E. coli lysate
B15: SEQ ID NO 51 (Fab, V domains shown)
VH: B12 VH with I56S, N57Y, G58S, H61S, D76G, G78K, T79N, S80D, Y82T
VL: B1 VL
notes: Fab, E. coli lysate
B16: SEQ ID NO 85 (Fab, V domains shown)
VH: B12 VH with Y33W, I56S, H61S, D76G, Y82T, R100Q
VL: B1 VL
notes: Fab, E. coli lysate
B17: SEQ ID NO 81 (Fab, V domains shown)
VH: B1 VH with A23R, W33Y, S56I, Y57N, G58S, N79T, S80D, P107Y
VL: B1 VL
notes: Fab, E. coli lysate
B18: SEQ ID NO 79 (Fab, V domains shown)
VH: B1 VH with G26Q, T28I, W33Y, S56I, S61H, G78K, S80D, Q100R
VL: B1 VL
notes: Fab, E. coli lysate
B19: SEQ ID NO 36 (Fab, V domains shown)
VH: B12 VH with T5V, R23A, G26Q, I28T, N57Y, H61S
VL: B1 VL
notes: Fab, E. coli lysate
B20: SEQ ID NO 75 (Fab, V domains shown)
VH: B1 VH with A23R, S27F, S56I, G58S, S61H, G76D, G78K, Q100R
VL: B1 VL
notes: Fab, E. coli lysate
B21: SEQ ID NO 77 (Fab, V domains shown)
VH: B1 VH with W33Y, S56I, G58S, G76D, T82Y, P107Y
VL: B1 VL
notes: Fab, E. coli lysate
B22: SEQ ID NO 54 (Fab, V domains shown)
VH: B1 VH with V5T, T28I, W33Y, S56I, T82Y
VL: B1 VL
notes: Fab, E. coli lysate
B23: SEQ ID NO 58 (Fab, V domains shown)
VH: B12 VH with R23A, G26Q, Y33W, I56S, G58S, H61S, T79N, S80D, R100Q
VL: B1 VL
notes: Fab, E. coli lysate
B24: SEQ ID NO 89 (Fab, V domains shown)
VH: B12 VH with T5V, G26Q, I28T, H61S, S80D
VL: B1 VL
notes: Fab, E. coli lysate
B25: SEQ ID NO 44 (Fab, V domains shown)
VH: B12 VH with R23A, I28T, Y33W, I56S, N57Y, G58S, G78K, S80D, Y82T
VL: B1 VL
notes: Fab, E. coli lysate
B26: SEQ ID NO 69 (Fab, V domains shown)
VH: B12 VH with T5V, G26Q, I28T, Y33W, I56S, G58S, D76G, T79N
VL: B1 VL
notes: Fab, E. coli lysate
B27: SEQ ID NO 46 (Fab, V domains shown)
VH: B1 VH with A23R, W33Y, S80D, T82Y
VL: B1 VL
notes: Fab, E. coli lysate
B28: SEQ ID NO 49 (Fab, V domains shown)
VH: B1 VH with V5T, G26Q, S27F, T28I, S61H, T82Y, P107Y
VL: B1 VL
notes: Fab, E. coli lysate
B29: SEQ ID NO 91 (Fab, V domains shown)
VH: B12 VH with R23A, G26Q, F27S, G58S, D76G, G78K, T79N, S80D, Y107P
VL: B1 VL
notes: Fab, E. coli lysate
B30: SEQ ID NO 83 (Fab, V domains shown)
VH: B12 VH with H61S, T79N, Y107P
VL: B1 VL
notes: Fab, E. coli lysate
B31: SEQ ID NO 43 (Fab, V domains shown)
VH: B1 VH with A23R, T28I, S56I, Y57N, G76D
VL: B1 VL
notes: Fab, E. coli lysate
B32: SEQ ID NO 57 (Fab, V domains shown)
VH: B12 VH with R23A, Y33W, I56S, N57Y, G58S, R100Q
VL: B1 VL
notes: Fab, E. coli lysate
B33: SEQ ID NO 72 (Fab, V domains shown)
VH: B12 VH with F27S, N57Y, G58S, D76G, R100Q
VL: B1 VL
notes: Fab, E. coli lysate
B34: SEQ ID NO 61 (Fab, V domains shown)
VH: B12 VH with T5V, N57Y, D76G, T79N, S80D
VL: B1 VL
notes: Fab, E. coli lysate
B35: SEQ ID NO 68 (Fab, V domains shown)
VH: B12 VH with G26Q, Y33W, G58S, G78K, T79N, S80D, Y82T
VL: B1 VL
notes: Fab, E. coli lysate
B36: SEQ ID NO 66 (Fab, V domains shown)
VH: B12 VH with I28T, N57Y, G58S, G78K, S80D, Y82T
VL: B1 VL
notes: Fab, E. coli lysate
B37: SEQ ID NO 64 (Fab, V domains shown)
VH: B12 VH with R23A, G26Q, I28T, Y33W, N57Y, G78K, Y107P
VL: B1 VL
notes: Fab, E. coli lysate
B38: SEQ ID NO 67 (Fab, V domains shown)
VH: B12 VH with I28T, N57Y, G58S, D76G, G78K, S80D, Y82T, Y107P
VL: B1 VL
notes: Fab, E. coli lysate

Target: T1, human tumor necrosis factor-α (rHuTNF-alpha, Biosource) (human, UniProt P01375 77-233)
T1 construct: Bought recombinant protein coated on ELISA plates; The TNFα of the Biacore assay is not described further; also called TNFα; human TNFα
T1 sequence (P01375 77-233 limits assumed): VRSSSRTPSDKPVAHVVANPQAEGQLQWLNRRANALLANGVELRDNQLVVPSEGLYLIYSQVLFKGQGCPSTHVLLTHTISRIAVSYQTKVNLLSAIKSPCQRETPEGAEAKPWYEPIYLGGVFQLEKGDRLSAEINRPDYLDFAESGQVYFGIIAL
Experiment: solid-phase ELISA, Fab lysate on coated rHuTNF-alpha
Procedure: The Fab libraries were cloned into pTrcHis2A (Cat. No. V365-20, Invitrogen, Carlsbad, Calif.). Proteins were expressed in E. coli and solid-phase ELISA was used to assess Fab binding to human TNFα. Briefly, 96-well plates were coated overnight at 4° C. with 1 μg/ml of rHuTNF-alpha (Biosource, Camarillo, Calif.) in Carbonate-bicarbonate buffer, pH9.4. After washing in PBS with 0.05% (w/v) Tween-20, the wells were blocked with 1% (w/v) BSA in PBS for 1 hour at room temperature. After washing, plates were incubated with transformed E. coli cell lysate diluted in the assay buffer (1% BSA and 0.05% Tween-20 in 10 mM PBS) for 2 hours at room temperature. Various concentrations of infliximab (0.5, 1 and 2 ng/ml) were used as positive anti-Human Kappa Light Chain Biotin/anti-penta-His Biotin control. Plates were washed and incubated with ImmunoPure Goat Anti-Human Kappa Chain, Biotin Conjugated (Cat. No. 31780, Pierce Biotechnology, Rockford, Ill.) and Penta-His Biotin Conjugate (Cat. No. 34440, QIAGEN, Valencia, Calif.) diluted 1:2000 in the assay buffer for 1 hour at room temperature. Following another washing step, plates were probed for 1 hour at room temperature with 100 μL/well of Streptavidin POD (Cat. No. 1089153, Roche Applied Science, Indianapolis, Ind.) diluted 1:4000 in the assay buffer. Plates were further washed and then incubated with 3,3′,5,5′-tetramentylbenzidine (TMB, Cat. No. 34028, Pierce Biotechnology) for 30 minutes. Substrate development was stopped by addition of 100 μL/well TMB Stop Solution (Cat. No. 50-85-05, KPL, Gaithersburg, Md.) and the absorbance was measured at 450 nm via an automated plate spectrophotometer.

| Binder | binding result |
| --- | --- |
| B1 | binds |
| B2 | binds |
| B3 | binds |
| B4 | binds |
| B5 | binds |
| B6 | binds |
| B7 | binds |
| B8 | binds |
| B9 | binds |
| B10 | binds |
| B11 | binds |
| B12 | binds |
| B13 | binds |
| B14 | binds |
| B15 | binds |
| B16 | binds |
| B17 | binds |
| B18 | binds |
| B19 | binds |

| Binder | binding result |
| --- | --- |
| B20 | binds |
| B21 | binds |
| B22 | binds |
| B23 | binds |
| B24 | binds |
| B25 | binds |
| B26 | binds |
| B27 | binds |
| B28 | binds |
| B29 | binds |
| B30 | binds |
| B31 | binds |
| B32 | binds |
| B33 | binds |
| B34 | binds |
| B35 | binds |
| B36 | binds |
| B37 | binds |
| B38 | binds |
